Experiments:
[1] = molecular target: BonA_ACP1a (Burkholderia gladioli pv. cocovenenans)
[2] = molecular target: BonH (Burkholderia gladioli pv. cocovenenans); experiment: SEC; analytical size exclusion chromatography of the purified protein in solution; conditions in the supplementary information
[3] = molecular target: BonA_ACP2a (Burkholderia gladioli pv. cocovenenans)
[4] = molecular target: the molecule itself; experiment: SEC; analytical size exclusion chromatography of the purified protein in solution; conditions in the supplementary information

Molecule: BonH (enzyme)
- BonH-catalysed conversion of HMG-BonA ACP1a to the MG-ACP product, by ESMS [1]: 15%
- stoichiometry N [2]: 3

Molecule: BonI (enzyme)
- BonI-catalysed conversion (with BonH) of HMG-BonA ACP1a to the endo-β-methyl-ACP product, by ESMS [1]: 15%
- BonI-catalysed decarboxylation of MG-BonA ACP2a (made by BonH from HMG-BonA ACP2a) to endo-β-methyl-BonA ACP2a, by ESMS and Ppant ejection [3]: 50%

B1: BonI (enzyme)
chain: MSRPAHFHGSATEMSERVVHLAELEPGIVRITLEDRTHKNAFSDRLLNGIVEAFAEVAANPSWKAVILTGYDTYFCTGGTQDMLLKLSKGEGRFTDFPIYNLPLTCEIPVIAAMQGHAVGGGLALGLFADFVVLSRESVYTANFMKYGFTPGFGSTLVMREKLGLPLAQALLMTAANYRGDELARHGIAFPVLPRAEVAAHALDIARQLADKPRHSLVTLKAHLNAPLRAMLPEVTAREVEMHERTFPHPEVQQRIRALFGS
- stoichiometry N [4]: 3

— article PMC12560621, “β-Branching in the biosynthesis of bongkrekic acid: a complex affair” (RSC Advances, 2025)
